Laboratory results published in US20100137208A1, “INTRATUMORALLY ADMINISTERED LACTOFERRIN IN THE TREATMENT OF MALIGNANTNEOPLASMS AND OTHER HYPERPROLIFERATIVE DISEASES” (priority 2002, published 2010).
Values joined by “and” are separate entries in the source; they are usually repeats but may differ in a detail not shown here. Equal entries are not always repeated. Marks after values point to notes of the source that are not given here.

Experiments:
GM-CSF = GM-CSF production in small intestine after oral rhLF (ELISA); format: in vivo, mice; conditions: oral 300 mg/kg/day for three days
Method: Recombinant human lactoferrin or placebo were orally administered to mice, and the production of GM-CSF in the small intestine was measured.
Mice (5 animals per group) were treated for three days daily with 300 mg/kg/day of rhLF. For a control, mice were only administered the pharmaceutical carrier. Twenty-four hours following administration of the LF or placebo for 3 days, animals were and the small intestinal tissue was removed for further analysis. Small intestinal epithelium was homogenized using a lysis buffer consisting of PBS, 1% Nonidet P-40, 0.5% sodium deoxycholate, and 0.1% sodium dodecyl sulphate containing 10 μg/ml PhenylMetheylsulfonyl fluoride. Homogenate was centrifuged at 15,000 rpm for 10 minutes and the supernatant stored at −80 C till it was tested for GM-CSF levels using an ELISA kit.

IL-18 = IL-18 levels in small intestine and serum after oral rhLF or bLF (ELISA); format: in vivo, mice; conditions: for IL-18 level, Intestinal Extract / IL-18 level, Serum: 24 h after last dose
Method: Recombinant human lactoferrin and bovine lactoferrin were orally administered to mice, and the production of IL-18 in the small intestine was measured.
Mice were treated for three days daily with 65 mg/kg/day of rhLF, 300 mg/kg/day of rhLF or 300 mg/kg/day of bLF. For a control, mice were only administered the pharmaceutical carrier. Twenty-four hours following administration of the LF or control for 3 days, animals were weighed and blood and serum were collected. Serum was used for cytokine ELISA assays.
Also, at these time points, animals were sacrificed and the small intestinal tissue was removed for further analysis. Small intestinal epithelium was homogenized using a lysis buffer consisting of PBS, 1% Nonidet P-40, 0.5% sodium deoxycholate, and 0.1% sodium dodecyl sulphate containing 10 μg/ml PhenylMetheylsulfonyl fluoride. Homogenate was centrifuged at 15,000 rpm for 10 minutes and the supernatant stored at −80 C till it was tested for IL-18 levels.

YAC targets = experiment: NK activity ex vivo after oral rhLF (LDH release test); format: in vivo, Balb/c naïve mice; conditions: for % Cytotoxicity Final (NK activity): oral 300 mg/kg/day 3 days, spleen NK cells day 4
Method: Balb/c naïve mice were treated orally with rhLF or placebo once a day for 3 days (see Table 4).
On day 4, mice were sacrificed and spleens were collected. NK cells were separated using a magnetic bead cell sorting assay (MACS anti-NK-DX5) and counted. Cells were then tested in vitro for NK-activity against YAC targets using a lactate dehydrogenase (LDH) release test.
Balb/c naïve mice were treated orally with rhLF or placebo once a day for 3 days. One day later (day 4), mice were sacrificed and spleens collected. NK cells were separated using a magnetic bead cell sorting assay (MACS anti-NK-DX5) and counted. Cells were then tested in vitro for NK-activity against YAC targets using a lactate dehydrogenase (LDH) release test.

metastatic cancer = experiment: Oral rhLF in human patients with metastatic cancer, tumor size by CT; format: in vivo
Method: Recombinant human lactoferrin was orally administered to human patients with a range of metastatic cancer types that had failed standard chemotherapy in two different studies conducted in multiple centers in four countries (Argentina, Brazil, Chile, U.S.) RhLF was administered at doses of 1.5 to 9 grams daily in two divided doses in cycles of 14 each with a 14 day gap.
Tumor size progression was monitored through CT scans and tumor markers where available. CT scans were performed at baseline and after each 8-week period once treatment was initiated, and also compared with a pre-baseline scan conducted prior to enrollment in the study. Tumor markers are measured every 4 weeks. Blood samples were collected to measure subclasses of circulating lymphocytes and NK cell activity. Plasma, serum and blood cell extract samples were collected to measure circulating IL-18, IL-1, IL-2, and IL-4, IL-5, IL-10, IL-12 and IFN-γ.

[1] = system: murine squamous carcinoma cell line (SCCVII); experiment: SCCVII floor-of-mouth tumor growth, oral rhLF and/or cisplatin; format: in vivo, C3H mice; conditions: rhLF 200 mg/Kg oral once daily days 5-12, no cisplatin
Method: A murine squamous carcinoma cell line (SCCVII) was injected into the floor of the mouth through the neck skin of immunocompetent C3H mice (Day 0). […] Tumors were measured in three dimensions with calipers.
Tumor-bearing mice were randomized into a control group and seven groups receiving rhLF and/or cisplatin. RhLF (4 mg; 200 mg/Kg) was administered once daily by oral gavage for 8 days on days 5 through 12. Cisplatin was administered as a single dose of 5 mg/Kg given intraperitoneally either at the start of rhLF (day 5), in the middle (day 8) or at the end (day 12) of rhLF therapy. Animals were sacrificed on day 12 post-implantation and the residual tumor masses were measured and processed for later additional analyses.
A murine squamous carcinoma cell line (SCCVII) was injected into the floor of the mouth through the neck skin of immunocompetent C3H mice (Day 0) as described in Example 6. On Day 5 days after initial implantation, tumors were measured for the baseline, then treated with either cisplatin (Day 8, i.p., 5 mg/kg) alone or cisplatin plus three doses of oral rhLF (daily by gavage for 7-8 days on days 5 through 11/12). Animals were sacrificed on Day 11/12 and tumors measured.

[2] = system: Human squamous cell carcinoma (O12); experiment: Inhibition of tumor growth by rhLF in O12 tumor model in mice; format: in vivo, athymic nude mice
Method: Human squamous cell carcinoma (O12) was used. The cells were injected into the right flank of athymic nude mice. rhLF was administered either intratumorally (49 animals, 7 doses ranging from 0.05 μg to 125 μg per dose), intravenously (7 animals, 125 μg/dose) or orally (7 animals 20 mg/dose). Control animals were treated with only the vehicle; no rhLF was administered to the control animals. rhLF was administered twice a day for either five days (intravenous group) or eight days (all other groups) starting 11 days after inoculation with tumor cells to allow formation of established tumors.
The efficacy of treatment was evaluated by measuring the solid tumor size during and at the end of the experiment; the body weights were also determined at the time of tumor measurements.

[3] = oral 65 mg/kg/day for three days
[4] = oral 65 mg/kg/day rhLF versus 300 mg/kg bLF
[5] = oral 300 mg/kg/day for three days
[6] = oral 300 mg/kg/day rhLF versus 300 mg/kg bLF

B1: rhLF: recombinant human lactoferrin, a single chain metal binding glycoprotein (protein, UniProt P02788 20-710, looked up)
Lactotransferrin: GRRRSVQWCAVSQPEATKCFQWQRNMRKVRGPPVSCIKRDSPIQCIQAIAENRADAVTLDGGFIYEAGLAPYKLRPVAAEVYGTERQPRTHYYAVAVVKKGGSFQLNELQGLKSCHTGLRRTAGWNVPIGTLRPFLNWTGPPEPIEAAVARFFSASCVPGADKGQFPNLCRLCAGTGENKCAFSSQEPYFSYSGAFKCLRDGAGDVAFIRESTVFEDLSDEAERDEYELLCPDNTRKPVDKFKDCHLARVPSHAVVARSVNGKEDAIWNLLRQAQEKFGKDKSPKFQLFGSPSGQKDLLFKDSAIGFSRVPPRIDSGLYLGSGYFTAIQNLRKSEEEVAARRARVVWCAVGEQELRKCNQWSGLSEGSVTCSSASTTEDCIALVLKGEADAMSLDGGYVYTAGKCGLVPVLAENYKSQQSSDPDPNCVDRPVEGYLAVAVVRRSDTSLTWNSVKGKKSCHTAVDRTAGWNIPMGLLFNQTGSCKFDEYFSQSCAPGSDPRSNLCALCIGDEQGENKCVPNSNERYYGYTGAFRCLAENAGDVAFVKDVTVLQNTDGNNNEAWAKDLKLADFALLCLDGKRKPVTEARSCHLAMAPNHAVVSRMDKVERLKQVLLHQQAKFGRNGSDCPDKFCLFQSETKNLLFNDNTECLARLHGKTTYEKYLGPQYVAGITNLKKCSTSPLLEACEFLRK
GM-CSF Increase over Placebo (GM-CSF): 19.4% (p < 0.01) | GM-CSF level, Mean (SEM) (GM-CSF; 5 animals per group): 7.74 (0.19) pg | IL-18 Intestinal Extract % Increase Over Control (IL-18; [3]): 725% | IL-18 Serum % Increase Over Control (IL-18; [3]): 84% | IL-18 level, Intestinal Extract (IL-18; [3]): 7,879 pg | IL-18 level, Serum (IL-18; [3]): 259 pg | IL-18 Intestinal Extract % Increase Over Blf (IL-18; [4]): 75% | IL-18 Serum % Increase Over Blf (IL-18; [4]): 94% | IL-18 Intestinal Extract % Increase Over Control (IL-18; [5]): 775% | IL-18 Serum % Increase Over Control (IL-18; [5]): 132% | IL-18 level, Intestinal Extract (IL-18; [5]): 8,350 pg | IL-18 level, Serum (IL-18; [5]): 328 pg | IL-18 Intestinal Extract % Increase Over Blf (IL-18; [6]): 85% | IL-18 Serum % Increase Over Blf (IL-18; [6]): 145% | amounts of IL-18 in both the serum and in the intestinal extract (IL-18; oral, both doses (65 and 300 mg/kg/day)): significantly enhanced | relative increase of NK activity over placebo-treated animals (YAC targets; 30:1 E:T ratio): 243% | % Cytotoxicity Increased over ctrl (YAC targets; E:T ratio 3.7:1, versus placebo group): 0% | % Cytotoxicity Increased over ctrl (YAC targets; E:T ratio 7.5:1, versus placebo group): 0% | % Cytotoxicity Increased over ctrl (YAC targets; E:T ratio 15:1, versus placebo group): 1.3% | % Cytotoxicity Increased over ctrl (YAC targets; E:T ratio 30:1, versus placebo group): 7** % | % Cytotoxicity Final (NK activity) (YAC targets; E:T ratio 3.7:1): 0% | % Cytotoxicity Final (NK activity) (YAC targets; E:T ratio 7.5:1): 0.44% | % Cytotoxicity Final (NK activity) (YAC targets; E:T ratio 15:1): 4.12% | % Cytotoxicity Final (NK activity) (YAC targets; E:T ratio 30:1, 300 mg/kg/day): 10% and 9.81% | Post Treatment 1 % Growth of tumor (metastatic cancer; Patient # 007, Lung, 7.5 weeks, pretreatment 160% (5.5 weeks)): 13% | Post Treatment 2 % Growth of tumor (metastatic cancer; Patient # 007, Lung, 8.5 weeks, pretreatment 160% (5.5 weeks)): 12% | Post Treatment 2 % Growth of tumor (metastatic cancer; Patient # 102, Ovarian, 8.5 weeks, pretreatment 30% (21 weeks)): −7% | Post Treatment 1 % Growth of tumor (metastatic cancer; Patient # 102, Ovarian, 10.5 weeks, pretreatment 30% (21 weeks)): −5% | Post Treatment 2 % Growth of tumor (metastatic cancer; Patient # 104, Gastric, 7 weeks, pretreatment 25% (5.5 weeks)): −5% | Post Treatment 1 % Growth of tumor (metastatic cancer; Patient # 104, Gastric, 10 weeks, pretreatment 25% (5.5 weeks)): 10% | Post Treatment 1 % Growth of tumor (metastatic cancer; Patient # 106, Melanoma, 11 weeks, pretreatment 24% (19 weeks)): −18% | Post Treatment 2 % Growth of tumor (metastatic cancer; Patient # 204, Breast, 6.5 weeks, pretreatment 40% (8 weeks)): 0% | Post Treatment 1 % Growth of tumor (metastatic cancer; Patient # 204, Breast, 10 weeks, pretreatment 40% (8 weeks)): 0% | patients with stable disease by the RECIST criteria (metastatic cancer; oral 1.5 to 9 grams daily, nine of nineteen evaluable patients, first post-treatment scan): 47% | TGI (%) Relative to Placebo [1]: 33% | Inhibition Relative to Placebo (tumor growth) ([2]; Intratumoral, 0.05 μg to 125 μg per dose twice a day for eight days, N = 49, Day 19): 28% | Inhibition Relative to Placebo (tumor growth) ([2]; Intratumoral, 0.05 μg to 125 μg per dose twice a day for eight days, N = 49, Day 28): 46% | Inhibition Relative to Placebo (tumor growth) ([2]; Intravenous, 125 μg/dose twice a day for five days, N = 7, Day 19): 55% | Inhibition Relative to Placebo (tumor growth) ([2]; Intravenous, 125 μg/dose twice a day for five days, N = 7, Day 28): 65% | Inhibition Relative to Placebo (tumor growth) ([2]; Oral, 20 mg/dose twice a day for eight days, N = 7, Day 19): 76% | Inhibition Relative to Placebo (tumor growth) ([2]; Oral, 20 mg/dose twice a day for eight days, N = 7, Day 28): 80% | reduced rates of tumor growth relative to the control ([2]; across intratumoral, intravenous and oral routes): 46% to 80
